Source: patent US20230366033A1, “METHODS FOR TREATING CANCERS WITH INHIBITORS TARGETING THE ROLE OF GRB2 IN DNA REPAIR” (Board of Regents, The University of Texas System, priority 2020, published 2023)
Like-named read-outs stand apart in the source and are kept apart here. Values belong to the compound of their own block, whether it stands above or below them. Where no end group is shown, it is not given here. [ ]: non-standard residue; d: D form. pY = N[C@@H](Cc1ccc(OP(=O)(O)O)cc1)C(=O)O

Experiments:
[1] = target: T1, human MRE11 (residue 1-411) (Homo sapiens, UniProt P49959); assay: Microscale thermophoresis (MST) binding of GRB2 WT and mutants; conditions: bacterially expressed proteins lacking ubiquitination
T1 construct: Human MRE11 core (residues 1-411) purification was described previously; 6xHis; made in house
T1 sequence (P49959 1-411): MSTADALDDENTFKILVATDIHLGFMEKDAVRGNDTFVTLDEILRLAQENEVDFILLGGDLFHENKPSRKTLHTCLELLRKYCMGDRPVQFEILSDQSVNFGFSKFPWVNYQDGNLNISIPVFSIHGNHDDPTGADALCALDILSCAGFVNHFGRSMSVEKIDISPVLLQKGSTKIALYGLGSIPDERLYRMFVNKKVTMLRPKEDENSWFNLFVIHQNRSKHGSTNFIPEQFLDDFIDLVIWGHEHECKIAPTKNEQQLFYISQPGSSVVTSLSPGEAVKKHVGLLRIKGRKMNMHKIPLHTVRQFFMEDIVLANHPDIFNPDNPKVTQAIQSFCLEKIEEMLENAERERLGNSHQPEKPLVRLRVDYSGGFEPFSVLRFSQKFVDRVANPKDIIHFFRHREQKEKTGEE
Text: FIGS. 2A-2H. Interactions of nGRB2 with DNA damage response factors. (FIG. 2A) Mass spectrometry identifies nuclear GRB2-associated proteins that are involved in DNA damage repair. Mean of coverage and unique peptides from three independent data sets are shown. (FIG. 2B) Strep-Tactin precipitation of Strep-GRB2 precipitated from HEK293T cells followed by western blotting with indicated antibodies. (FIG. 2C) GRB2 preferentially co-precipitate MRE11 without RAD50 or NBS1. Strep-GRB2 expressed HEK293T cells treated with or without 5 Gy IR were lysed immediately followed by Strep-Tactin precipitation and immunoblotting with indicated antibodies. (FIG. 2D) Immunoprecipitation of NBS1. HEK293T cells were co-transfected with RFP-GRB2 and GFP-NBS1 or GFP alone as control. Total cell lysates were precipitated with GFP-trap beads and immunoblotted with indicated antibodies. (FIG. 2E) Immunoprecipitation of RAD50. HEK293T cells expressing Flag-RAD50 or Flag-Ctrl were co-transfected with RFP-GRB2 for 24 h. Unperturbed cells were immunoprecipitated with Flag-M2 beads and immunoblotted with indicated antibodies. β-Actin was used as a loading control. (FIG. 2F) Immunoprecipitation of MRE11. […]
(§1) Microscale thermophoresis. […] The Kd values were measured using the Monolith NT.115 system (Nano Temper). […] Labeling efficiency was determined to be 1:1 (protein:dye) by measuring the absorbance at 280 and 488 nm. […]

GRB2-SH2 domain = target: T2, GRB2-SH2 domain (Homo sapiens, UniProt P62993); assay: Microscale thermophoresis (MST) binding of synthetic peptides
T2 construct: 6xHis; made in house
T2 sequence (P62993 60-152 limits assumed): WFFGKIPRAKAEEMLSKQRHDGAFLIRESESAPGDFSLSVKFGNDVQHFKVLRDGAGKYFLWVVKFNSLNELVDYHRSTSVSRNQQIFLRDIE
Text: (§2) FIGS. 3A-3I. Identification of GRB2 binding interfaces on MRE11, RPA70 and H2AX. (FIG. 3A) Schematic DDR binding-motifs (circles) on GRB2 within its domain architecture. Approximate non-canonical binding motifs are shown. (FIG. 3B) GST-SH domains pulldown of HEK293T cell-extracts followed by immunoblotting with indicated antibodies. (FIG. 3C) GST pulldown of bacterially expressed and purified human MRE11 with indicated GRB2 SH-domains. (FIG. 3D) OB1 fold binding motifs sequence alignment (top). MST isotherms of 50 nM Atto488-labelled RPA70 N-terminal domain (residue 1-120) binding to titrating concentrations (2 nM to 20 μM) of GRB2 or GRB2-derived OB1 peptide. The binding affinity (Kd) is shown. (FIG. 3E) Strep-Tactin precipitation of WT and DF/AA mutant from HEK293T cells that were either untreated (normal) or immediately after IR treated (5 Gy) and lysed, followed by western blot detection with the indicated antibodies. (FIG. 3F) MST-binding isotherms of an Atto488-labelled GRB2-SH2 domain (100 nM) binding to titrating concentrations (30 nM to 500 μM) of synthetic peptides derived from indicated proteins. (FIG. 3G) MST-isotherms of 100 nM Atto488-labelled K109R GRB2 mutant binding to titrating concentrations (30 nM to 200 μM) of synthetic peptides derived from the indicated proteins. Each isotherm was derived from the raw data and fitted according to the law of mass action to yield an apparent Kd. (FIG. 3H) Molecular docking overlay model of GRB2-SH2 domain with (PDB: 3wa4) and without (PDB: 1gri) showing S88 and S90 movement ˜4.7 Å when bound to phosphotyrosine peptide (PDB: 3wa4). K109R shown modeled, which could engage with the loop containing S88 and S90 residues. (FIG. 3I) Docking of pH2AX, MRE11 and pEGFR peptide into GRB2 SH2 domain pocket. The relative docking orientation of each peptide is shown.
(§3) Microscale thermophoresis. The MST method has been described in detail elsewhere (Seidel et al., 2013). The Kd values were measured using the Monolith NT.115 system (Nano Temper). Proteins were fluorescently labeled with Atto 488 according to the manufacturer's protocol. Labeling efficiency was determined to be 1:1 (protein:dye) by measuring the absorbance at 280 and 488 nm. A solution of peptides or proteins in 0.01 M HEPES (pH 7.4), 0.15 M NaCl and 0.005% v/v Surfactant P20 was serially diluted, typically from about 100 μM to 30 nM in the presence of 100 nM labeled protein. The samples were loaded into silica capillaries (Polymicro Technologies) after incubation at room temperature for 15 min. Measurements were performed at 22° C. using 20% LED power and 40% IR-laser power. Measurements were also carried out using 20% and 60% IR-laser power for comparison. Data analyses were performed using Nano Temper Analysis software using the Kd curve fitting function. Raw data were exported and fitting curves were generated using Prism 8 (GraphPad Software) for presentation.

K109R GRB2 mutant = target: T3, K109R GRB2 mutant (Homo sapiens, UniProt P62993, K109R); assay: as above; conditions: 100 nM Atto488-labelled K109R GRB2
T3 construct: 6xHis; made in house
T3 sequence (P62993 whole entry K109R): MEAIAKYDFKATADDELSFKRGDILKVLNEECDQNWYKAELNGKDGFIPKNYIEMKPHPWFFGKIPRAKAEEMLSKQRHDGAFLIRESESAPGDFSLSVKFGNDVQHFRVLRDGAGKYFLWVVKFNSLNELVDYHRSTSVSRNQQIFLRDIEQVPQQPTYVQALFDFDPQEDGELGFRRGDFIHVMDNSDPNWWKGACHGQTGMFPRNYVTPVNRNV
Text: as §2, §3

[2] = target: T4, RPA70 N-terminal domain (residue 1-120) (Homo sapiens, UniProt P27694); assay: Microscale thermophoresis (MST) binding; conditions: 50 nM Atto488-labelled RPA70N
T4 construct: 6xHis; made in house
T4 sequence (P27694 1-120): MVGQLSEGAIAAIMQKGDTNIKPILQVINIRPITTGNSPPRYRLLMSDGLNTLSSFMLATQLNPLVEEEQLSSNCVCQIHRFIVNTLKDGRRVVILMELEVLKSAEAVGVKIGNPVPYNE
Text: FIGS. 3A-3I. Identification of GRB2 binding interfaces on MRE11, RPA70 and H2AX. (FIG. 3A) Schematic DDR binding-motifs (circles) on GRB2 within its domain architecture. Approximate non-canonical binding motifs are shown. (FIG. 3B) GST-SH domains pulldown of HEK293T cell-extracts followed by immunoblotting with indicated antibodies. (FIG. 3C) GST pulldown of bacterially expressed and purified human MRE11 with indicated GRB2 SH-domains. (FIG. 3D) OB1 fold binding motifs sequence alignment (top). MST isotherms of 50 nM Atto488-labelled RPA70 N-terminal domain (residue 1-120) binding to titrating concentrations (2 nM to 20 μM) of GRB2 or GRB2-derived OB1 peptide. The binding affinity (Kd) is shown. (FIG. 3E) Strep-Tactin precipitation of WT and DF/AA mutant from HEK293T cells that were either untreated (normal) or immediately after IR treated (5 Gy) and lysed, followed by western blot detection with the indicated antibodies. (FIG. 3F) MST-binding isotherms of an Atto488-labelled GRB2-SH2 domain (100 nM) binding to titrating concentrations (30 nM to 500 μM) of synthetic peptides derived from indicated proteins. […]
as §1

dissociation constant (Kd), interaction with MRE11 [1]: intact MRE11 binding
Compound: K109A mutant: ubiquitination-defective GRB2 K109A mutant, bacterially expressed

Kd (GRB2-SH2 domain; MST, 100 nM Atto488-labelled GRB2-SH2 domain, read-out: Kd, binding to GRB2-SH2 domain): 2.8 ± 3.3 µM
binding affinity to K109R GRB2 relative to WT GRB2 (K109R GRB2 mutant): comparable to that of ^WTGRB2
Compound: C[C@H](NC(=O)[C@H](CCCCN)NC(=O)[C@H](CCCCN)NC(=O)CNC(=O)CNC(=O)[C@H](CO)NC(=O)[C@@H]1CCCN1)C(=O)N[C@H](C(=O)N[C@@H](CCC(N)=O)C(=O)N[C@@H](C)C(=O)N[C@@H](COP(=O)(O)O)C(=O)N[C@@H](CCC(N)=O)C(=O)N[C@@H](CCC(=O)O)C(=O)N[C@@H](Cc1ccc(OP(=O)(O)O)cc1)C(=O)O)[C@@H](C)O [pH2AX peptide]

binding affinity to K109R GRB2 relative to WT GRB2 (K109R GRB2 mutant): at least two orders of magnitude weaker
Compound: CC(C)C[C@H](NC(=O)[C@H](CC(N)=O)NC(=O)CNC(=O)[C@H](CC(=O)O)NC(=O)[C@H](CCC(N)=O)NC(=O)[C@H](Cc1ccc(O)cc1)NC(=O)[C@H](CC(N)=O)NC(=O)[C@@H](NC(=O)[C@H](Cc1c[nH]c2ccccc12)NC(=O)[C@@H]1CCCN1)C(C)C)C(=O)N[C@@H](CC(N)=O)C(=O)O

effect of tyrosine phosphorylation on binding affinity for GRB2-SH2 domain (GRB2-SH2 domain; MST): limited impact on its binding affinity
Compound: WVNpYQDGNLN (WVN[pY]QDGNLN)

dissociation constant (Kd), interaction with MRE11 [1]: no binding
Compound: K109R mutant: GRB2 lysine-to-arginine mutant at K109, bacterially expressed

Second part, the compound before the results:

Compound: non-ubiquitinated GRB2: bacterially expressed and purified wild-type growth factor receptor-bound protein 2
binding to RPA70N [2]: direct binding

Compound: CC[C@H](C)[C@H](NC(=O)[C@H](Cc1ccc(OP(=O)(O)O)cc1)NC(=O)[C@H](CCC(=O)O)NC(=O)[C@@H]1CCCN1C(=O)[C@@H](NC(=O)[C@@H]1CCCN1C(=O)[C@H](CC(C)C)NC(=O)[C@@H](N)Cc1ccccc1)C(C)C)C(=O)N[C@@H](CC(N)=O)C(=O)N[C@@H](CCC(N)=O)C(=O)N[C@@H](CO)C(=O)N[C@H](C(=O)N1CCC[C@H]1C(=O)N[C@@H](CCCCN)C(=O)N[C@@H](CCCNC(=N)N)C(=O)O)C(C)C [pEGFR]
Kd (GRB2-SH2 domain): 7.2 ± 2 µM
binding affinity to K109R GRB2 relative to WT GRB2 (K109R GRB2 mutant): comparable to that of ^WTGRB2

Compound: KYDFKATADDELSFKRG
binding to RPA70N [2]: interacted with RPA70N
